Legend:
HMVEC cells = assay: Apoptosis of stimulated endothelial cells (histone ELISA); type: cell-based, human
Description: FIG. 9B is a graph showing the induction by rK5 of apoptosis in stimulated endothelial cells. The rate of apoptosis was measured in HMVEC cells using a histone detection kit (Markwell, M. A. K. Anal Biochem 1982, 125, 427-432.) HMVECs were grown in 96 well plates. Recombinant K5 at various concentrations was added to plates and incubated overnight. Apoptosis was determined from triplicate samples and the Apoptotic index was determined by dividing the absorbance from the treated cells by the absorbance from the untreated cells.
Assessment of Cellular Apoptosis: The effects of rK5 and rK5 peptide-induced apoptosis were determined with a histone ELISA apoptosis assay (Roche, Indianapolis, Ind.)(Mayr M, Li C, Zou Y, Huemer U, Hu Y, Xu Q. Biomechanical stress-induced apoptosis in vein grafts involves p38 mitogen-activated protein kinases. FASEB J. 2000 Feb.; 14(2):261-70) Cells (5000 per well) were grown in 96 well plates. rK5 and/or an antibody to GRP78 were added to plates and incubated overnight. Apoptosis was determined from triplicate samples and the Apoptotic Index was determined by dividing the absorbance from the treated cells by the absorbance from the untreated cells.

LNCaP = assay: Tumor cell proliferation, LNCaP; type: cell-based; conditions: 72 hours
Description: Cell Proliferation Assay. The effect of rK5 and rK5 peptides on endothelial cells were assessed using a proliferation assay with 1% BSA and 3 ng/ml bFGF in serum-free media. Relative cell numbers in each well of a 96 well microplate after incubation for 72 hours in the absence or presence of inhibitors were determined by using the AQueous cell proliferation assay (Promega, San Luis Obispo, Calif.). For all other cell lines tested for proliferation, minimal growth media was used (Cao, Y., Ji, R., Davidson, D., Schaller, J., Marti, D., Sohndel, S., McCance, S., O'Reilly, M., Llinas, M., and Folkman, J. Kringle domains of human angiostatin. Characterization of the anti-proliferative activity on endothelial cells. (1996) J. Biol. Chem. 271, 29461-29467). Results are presented as the percent inhibition of control cell (bFGF-induced) proliferation.

[1] = test system: HT1080 human fibrosarcoma cells; assay: Apoptosis of HT1080 cells under hypoxia; type: cell-based
Description: FIG. 15A is a graph showing the effect of rK5 on HT1080 human fibrosarcoma cells under hypoxic and non-hypoxic conditions. […] cells were plated on slides overnight with complete medium. Control slides were put in the incubator at 5% CO2 and 37° C. The other slide of cells was put in a hypoxic chamber with 95% N2, 5% CO2 at 37° C. for 24 hours. GRP78 on the cell surface was detected by IHC analysis with a polyclonal antibody to GRP78 conjugated to horseradish peroxidase. The GRP78 was visualized with the DAB reagent displaying a brown color.
(§1) FIG. 15B is a graph showing the effect of rK5 on induction of apoptosis in various tumor cell lines tested under hypoxic conditions. Cells were plated in 96-well plates overnight. Half the plates were put in hypoxic chambers overnight at 37° C. with and without 500 nM rK5. Increased apoptosis was shown by an ELISA technique that measures the number of nucleosome fragments. The apoptotic index was calculated from the apoptosis rate of control cells (without K5 and with or without hypoxia). The samples were run in quadruplicate.
FIG. 15C is a graph showing the effect of rK5 on hypoxia-stressed HT1090 cells transfected with an siRNA and a scrambled siRNA to GRP78. The transfected cells were plated in 96 well plates and placed at 5% CO2 and 37° C. rK5 (500 nM) was added to the cells and half were incubated in an hypoxic chamber with 95% N2, 5% CO2 at 37° C. and half were incubated at 5% CO2 and 37° C. for 24 hours. Apoptosis was shown by an ELISA technique mentioned above. The samples were run in quadruplicate.

caspase 7 = assay: Caspase 7 activity in HT1080 cells; type: cell-based, human; conditions: rK5 100 nM and hypoxia, overnight
Description: FIG. 16 is a graph showing the effect of rK5 and hypoxia treatment on caspace 7 activity in HT1080 cells. HT1080 cells were plated in 48 well plates. rK5 at 100 nM was added to the plates. HT1080 cells were incubated overnight in hypoxic conditions (95% N2, 5% CO2) compared to controls, which were incubated in 5% CO2. Caspase 7 activity in cell lysates was detected by the activation of an ELISA fluorescent substrate (R&D Systems).

tumor cell lines = assay: Apoptosis of various tumor cell lines under hypoxia; type: cell-based; conditions: 500 nM rK5, hypoxia overnight; exceptions Lewis Lung and PC-3
Description: as §1

GRP78 (bovine brain) = target: T1, GRP78 (bovine brain) (Bos taurus, UniProt Q0VCX2); assay: Ultracentrifugation binding of I125rK5(dog) with GRP78; conditions: 1 nM I125rK5(dog) + 1.5 nM GRP78; peptides 100 nM, rK5 1 nM
T1 construct: from tissue; host or cells: bovine brain
Description: Ultra centrifugation with 50,000 MW cut off filters was used with iodinated recombinant dog K5 (I^125rKS(dog)) and GRP78 (bovine brain). The GRP78 and I^125rK5 (dog) were incubated for 1 hour at room temperature. The solution was then transferred to ultracentrifuges and spun at 10,000×g for 2 min. The top chamber contained GRP78 (mw 78,000) and I^125rK5 (dog) that bound. The top and bottom solutions were counted for I125. Column A: 1 nM I^125rK5(dog). Column B: 1 nM I^125rK5 (dog)+1.5 nM GRP78. Column C: 1 nM I^125rK5(dog)+1.5 nM GRP78+100 nM N-terminal K5 peptide, LLPDVETPSEED. Column D: 1 nM I^125rK5(dog)+1.5 nM GRP78±100 nM active site K5 peptide PRKLYDY. Column E: 1 nM I^125rK5(dog)+1.5 nM GRP78+1 nM rK5 (unlabeled). The GRP78 bound to the labeled rK5 causing its retention on the top of the filter.

T1 sequence (Q0VCX2 20-655): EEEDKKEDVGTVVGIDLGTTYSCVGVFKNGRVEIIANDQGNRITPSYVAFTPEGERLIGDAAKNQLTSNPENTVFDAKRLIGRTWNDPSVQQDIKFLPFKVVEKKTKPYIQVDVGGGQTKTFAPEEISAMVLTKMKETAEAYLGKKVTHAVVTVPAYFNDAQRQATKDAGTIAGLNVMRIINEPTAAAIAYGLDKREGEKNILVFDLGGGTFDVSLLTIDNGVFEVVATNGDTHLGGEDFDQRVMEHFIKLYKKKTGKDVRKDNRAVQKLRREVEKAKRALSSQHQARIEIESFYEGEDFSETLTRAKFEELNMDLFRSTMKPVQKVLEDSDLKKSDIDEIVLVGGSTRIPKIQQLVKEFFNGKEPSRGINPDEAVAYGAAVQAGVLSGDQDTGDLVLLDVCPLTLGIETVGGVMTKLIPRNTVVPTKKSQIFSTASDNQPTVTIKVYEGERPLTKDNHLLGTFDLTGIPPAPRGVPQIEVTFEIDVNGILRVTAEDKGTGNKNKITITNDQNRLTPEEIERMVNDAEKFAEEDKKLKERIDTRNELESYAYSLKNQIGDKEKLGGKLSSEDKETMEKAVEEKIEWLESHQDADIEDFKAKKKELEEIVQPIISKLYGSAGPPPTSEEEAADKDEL

B1: rK5: recombinant kringle 5 fragment of human plasminogen (residues 450-543), expressed in E. coli or yeast (protein)
chain: LLPDVETPSEEDCMFGNGKGYRGKRATTVTGTPCQDWAAQEPHRHSIFTPETNPRAGLEKNYCRNPDGDVGGPWCYTTNPRKLYDYCDVPQCAA
induction of endothelial cell apoptosis (HMVEC cells): 1 nM | apoptosis of stimulated endothelial cells (HMVEC cells; overnight, FIG. 9B): induced | IC50 values for cell proliferation (LNCaP): >100 µg/mL | activity on hypoxia-stressed GRP78 siRNA transfected HT1080 cells ([1]; hypoxia, GRP78 siRNA transfected, rK5 500 nM): significantly eliminated the activity of rK5 | increase in apoptosis under hypoxic conditions ([1]; hypoxic conditions, within 24 hours): greater than two-fold increase in apoptosis | effect on cellular apoptosis without hypoxia ([1]; without hypoxia): no significant effect | caspase 7 activity (caspase 7): significant increase in caspase 7 activity | induction of apoptosis in tumor cell lines under hypoxic conditions (tumor cell lines): induced apoptosis in 8 out of 10 tumor cell lines | inhibition of I125rK5(dog) binding to GRP78 (GRP78 (bovine brain)): inhibited

— patent publication US20050053993A1, “Uses of an endothelial cell receptor” (priority 2002, published 2005)
